Experimental data published in the supplement of paper PMC10567573.

B1: FEM1B (parent)
chain: TLAALLLNRSESDIRYLLGYVSQQ
B2: SMG5 (parent)
chain: TNPDLIIVCAQSSQSLWNRLSVLL

Variants of: B1
Test: protein stability index of a GFP-peptide fusion (GPS, HEK-293T) (PSI 1-6); higher = more stable
Conditions: c terminus: a fixed tail appended
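Also: lentivirally expressed fusions sorted by FACS into six bins by GFP to DsRed ratio, PSI derived from sequencing read proportions per bin multiplied by bin number.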

Protein stability index of substitutions, site by site:
R15: P 2.03
T1: W 1.93
A4: V 2.42; E 2.94
Y20: T 1.97
Y16: G 3.2
N8: D 3.63
V21: W 3.68
L7: M 2.58
Q24: W 2.52

Variants of: B2
Test: as above
Conditions: c terminus: a fixed tail appended

Protein stability index, by site and new letter:
L16: D 3.33; E 2.42; Y 2.81; C 2.91; I 2.02; M 3.23; W 1.93; R 2.94; F 3.11; T 3.24; P 3.37; A 2.1; H 3.7; S 2.53; N 2.81; K 3.19; Q 2.55; V 1.51
A10: M 2.8; Q 2.4; V 4.35; I 3.25; H 2.68; F 3.77; S 2.94; W 2.35; R 1.8; T 2.17; D 2.01; Y 3.09; C 2.61; K 1.59; N 1.95; G 1.98; P 4.01
S13: M 2; H 1.53; K 2.48; I 1.41; C 2.21; E 1.57; N 2.7; A 1.16; T 3.23; L 2.97; Q 1.83; G 2.42; F 1.49; P 3.21; D 1.59; Y 3.59; V 1.88; W 1.55; R 1.36
Q11: P 3.62; D 3.08; V 3.29; R 2.19; M 2.81; E 1.32; W 1.54; K 2.89; N 2; L 3.05; F 1.67; C 3.76; Y 4.08; G 2.09; T 3.57
D4: I 2.79; S 1.76; M 4.85; K 3.33; R 1.94; A 1.33; F 1.71; Q 2.18; P 1.95; H 3.73; C 1.05; V 1.67; G 1.65
C9: N 2.35; H 1.64; T 1.95; A 2.28; F 2.64; L 3.72; S 3.03; W 3.33; D 2.29; I 2.72; E 1.72; G 1.45; R 2.12; Q 2.09; Y 1.56; K 1.98; P 1.92; V 2.69; M 1.76
I6: G 2.65; W 2.5; T 1.79; L 2.64; R 2.2; S 2.87; N 2.4; A 2.1; K 2.36; M 1.93; F 2.5; E 2.34; Y 2.83; H 1.66; V 4.02; P 2.57; Q 3.05; C 1.26; D 1.8
N18: H 2.56; Y 3.31; L 5.57; V 1.91; I 2.43; T 2.56; R 1.49; W 1.92; Q 2.4; G 2.69; C 2.27; P 3.09; K 2; E 1.56; A 3.11; D 2.97
T1: P 1.98; M 2.97; K 4.48; F 2.28; I 3.34; W 2.35; R 1.37; Q 3.39; V 2.84; N 3.25; D 1.57; A 1.38; Y 1.66; L 2.36; H 2.44
L20: G 2.45; C 2.88; A 2.15; F 1.81; E 3.06; D 1.83
R19: V 1.86; E 3.19; K 2.5; T 3.21; P 3.09; F 1.84; L 1.57; N 5.11; I 1.75; M 2.1; Q 2.95; D 3.35; Y 1.41; W 2.23; S 2.06; C 2.09; G 3.61; H 2.54; A 1.74
L5: K 2.82; W 1.4; V 2.51; G 1.54; P 2.94; Q 1.73; F 3.72; N 1.63; H 1.29; D 1.76; C 3.93; A 2.09; T 2.4; I 2.06; R 1.39; S 2.17; E 2.95; M 2.01; Y 1.47
N2: I 2.22; E 2.26; R 2.88; D 3.01; K 2.66; Y 1.77; L 2.99; H 1.88; C 2.8; P 3.06; W 3.06; T 4.22; V 2.06; G 2.66; M 2.18
S12: L 3.9; M 2.99; G 2.1; P 1.33; N 1.99; K 1.89; Y 4.01; E 2.22; F 3.37; R 3.06; H 3.49; C 3.33; D 2.12; I 3.02
V8: I 2.93; K 1.47; M 1.46; A 1.43; T 1.72; Y 2.59; G 2.27; R 2.22; Q 1.85; E 1.56; C 1.36; P 1.31; H 1.91; S 1.7; L 3.74; N 1.88; D 2.09; W 2.69
W17: I 2.47; P 2.82; D 1.77; Y 2.88; L 3.96; V 2.79; C 4.36; K 2.05; F 3.58; E 3; T 2.58; M 3.06; S 3.57; A 4.21; Q 1.9
Q14: A 3.98; L 1.6; Y 3.2; N 2.81; S 2.68; P 2.09; V 3.03; E 1.6; R 2.73; T 3.58; G 2.23; D 3.38; M 2.22; K 3.23
S15: F 4.58; K 3.11; A 2.62; G 2.9; T 1.44; H 2.18; Q 2.12; P 3.51; R 1.25; M 3.28; L 2.45; Y 2.49; W 1.76; I 4.01; E 2.58; N 3.11; C 3.21; D 2.19
P3: A 3.05; W 3.4; N 2.52; T 2.8; L 2.29; D 1.77; K 2.48; Q 1.71; E 2.57; M 2.64; F 2.18; R 3.61; G 3.64; I 4.44; V 4.46; S 2.5
I7: L 3.84; H 1.68; T 1.66; Y 1.65; Q 1.6; E 2.25; F 1.45; P 2.41; A 1.51; R 2.02; S 1.34; V 1.1; M 1.67; G 2.55; W 4.05; K 1.71; C 2.48; D 1.7; N 1.64
